Measured values taken from the supplement of paper PMC7125110.
± gives the standard error. For part of these data: Fewer inactive variants are shown than the library holds.

B1: glmS ribozyme (parent)
chain: AUAAAAGCGCCAGAACUACAGAAAUGUAGUUGACGAGGAGGAGGUUUAUCGAAUUUUCGGCGGAUGCCUCCAAA

Experiments:
Conditions in all cases: with glucosamine-6-phosphate
glucosamine-6-phosphate [1] = variants of: B1; assay: kcat; higher = faster cleavage; RNA array
Summary of the method: (§1)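 Barcoded ribozyme variants, transcribed in situ by E. coli RNA polymerase on sequenced MiSeq chips, were followed via a hybridised Cy3 probe at 37 °C. Glucosamine-6-phosphate ranged from 40 μM to 10 mM in HEPES/KCl/Mg(OAc)2 buffer. kobs came from decay fits to per-tile medians, and kcat and KM from weighted Michaelis–Menten fits.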

glucosamine-6-phosphate [2] = variants of: B1; assay: self-cleavage kobs at 40 uM GlcN6P; higher = faster cleavage; RNA array
Summary of the method: as §1

glucosamine-6-phosphate [3] = variants of: B1; assay: self-cleavage kobs at 160 uM GlcN6P; higher = faster cleavage; RNA array
Summary of the method: as §1

glucosamine-6-phosphate [4] = variants of: B1; assay: KM; higher = weaker cofactor use; RNA array
Summary of the method: as §1

glucosamine-6-phosphate [5] = variants of: B1; assay: self-cleavage kobs at 640 uM GlcN6P; higher = faster cleavage; RNA array
Summary of the method: as §1

glucosamine-6-phosphate [6] = variants of: B1; assay: self-cleavage kobs at 2500 uM GlcN6P; higher = faster cleavage; RNA array
Summary of the method: as §1

glucosamine-6-phosphate [7] = variants of: B1; assay: self-cleavage kobs at 10000 uM GlcN6P; higher = faster cleavage; RNA array
Summary of the method: as §1

## AUAAAAGCGCCAGAACUACAGAAAUGUAGUUGACGAGGAGGAGGUUUAUCGAAUUUUCUGCGGAUGCCACCAAA [G59U U69A]
glucosamine-6-phosphate [1]
  kcat: 1.61e-05 ± 5.1e-06 s⁻¹

## AUAAAAGCGCCAGAACUACAGAAAUGUAGUUGACGGGGAGGAGGUUUAUCGAAUUUUCGGCGGGUGCCUCCAAA [A36G A64G]
glucosamine-6-phosphate [1]
  kcat: 2.02e-05 ± 1.1e-06 s⁻¹
glucosamine-6-phosphate [2]
  self-cleavage kobs at 40 uM GlcN6P: < 1e-05 s⁻¹
glucosamine-6-phosphate [3]
  self-cleavage kobs at 160 uM GlcN6P: < 1e-05 s⁻¹

## AUAAAAGCGCCAGAACUACAGAAAUGUAGUUGACGAGGAGGAGGUUUAUCGAAUUUUCGGAGGGUGCCUCCAAA [C61A A64G]
glucosamine-6-phosphate [1]
  kcat: < 1e-05 s⁻¹
glucosamine-6-phosphate [2]
  self-cleavage kobs at 40 uM GlcN6P: < 1e-05 s⁻¹

## AUAAAAGCGCCAGAUCUACAGAAAUGUAGUUGACGAGGAGGAGGGUUAUCGAAUUUUCGGCGGAUGCCUCCAAA [A15U U45G]
glucosamine-6-phosphate [1]
  kcat: 0.000918 ± 0.00015 s⁻¹
glucosamine-6-phosphate [4]
  KM: 2150 ± 560 µM
glucosamine-6-phosphate [3]
  self-cleavage kobs at 160 uM GlcN6P: 5.29e-05 ± 1e-05 s⁻¹
glucosamine-6-phosphate [5]
  self-cleavage kobs at 640 uM GlcN6P: 0.000248 ± 3.2e-05 s⁻¹
glucosamine-6-phosphate [6]
  self-cleavage kobs at 2500 uM GlcN6P: 0.000552 ± 8.4e-05 s⁻¹
glucosamine-6-phosphate [7]
  self-cleavage kobs at 10000 uM GlcN6P: 0.000705 ± 9.6e-05 s⁻¹

## AUAAAAGCGCCAGAACUACAGAAAUGUAGUUGACGAGGACGAGGUUUAUCGAAUUUUCGGCGCAUGCCUCCAAA [G40C G63C]
glucosamine-6-phosphate [1]
  kcat: < 1e-05 s⁻¹
glucosamine-6-phosphate [3]
  self-cleavage kobs at 160 uM GlcN6P: < 1e-05 s⁻¹
glucosamine-6-phosphate [6]
  self-cleavage kobs at 2500 uM GlcN6P: < 1e-05 s⁻¹

## AUAAAAGCGCCAGAACUACAGAAAUGUAGUUGACGAGGAGGAGGUUUAUCGAUUUUUCGGCGGAUGCCUACAAA [A53U C70A]
glucosamine-6-phosphate [1]
  kcat: 0.000125 ± 2.5e-05 s⁻¹
glucosamine-6-phosphate [2]
  self-cleavage kobs at 40 uM GlcN6P: 4.52e-05 ± 7.1e-06 s⁻¹
glucosamine-6-phosphate [3]
  self-cleavage kobs at 160 uM GlcN6P: 7.24e-05 ± 1.2e-05 s⁻¹
glucosamine-6-phosphate [5]
  self-cleavage kobs at 640 uM GlcN6P: 0.000117 ± 1.3e-05 s⁻¹

## AUAAACGCGCCAGAACUACAGAAAUGUAAUUGACGAGGAGGAGGUUUAUCGAAUUUGCGGCGGAUGCCGCCAAA [A6C G29A U57G U69G]
glucosamine-6-phosphate [1]
  kcat: 3.11e-05 ± 1.2e-05 s⁻¹

## AUAAAAGCGCCAGAACUACAGAAAUGUAGUUGACGAGGAGGAGGUUUAUCGGAUUUUCGGCGGAUGCCCCCAAA [A52G U69C]
glucosamine-6-phosphate [1]
  kcat: 0.000343 ± 3.8e-05 s⁻¹
glucosamine-6-phosphate [4]
  KM: 425 ± 160 µM
glucosamine-6-phosphate [5]
  self-cleavage kobs at 640 uM GlcN6P: 0.000215 ± 4.5e-05 s⁻¹
glucosamine-6-phosphate [6]
  self-cleavage kobs at 2500 uM GlcN6P: 0.000269 ± 5.7e-05 s⁻¹
glucosamine-6-phosphate [7]
  self-cleavage kobs at 10000 uM GlcN6P: 0.000381 ± 0.00011 s⁻¹

## AUAAAAGCGCCAGAACUACAGAAAUGUAUUUGACGAGGAGGAGGUUUAUCGAAUUUUCGACGGAUGCCUCCAAA [G29U G60A]
glucosamine-6-phosphate [1]
  kcat: < 1e-05 s⁻¹
glucosamine-6-phosphate [2]
  self-cleavage kobs at 40 uM GlcN6P: < 1e-05 s⁻¹
glucosamine-6-phosphate [3]
  self-cleavage kobs at 160 uM GlcN6P: < 1e-05 s⁻¹
glucosamine-6-phosphate [5]
  self-cleavage kobs at 640 uM GlcN6P: < 1e-05 s⁻¹
glucosamine-6-phosphate [7]
  self-cleavage kobs at 10000 uM GlcN6P: < 1e-05 s⁻¹

## AUAAAAGCGCCAGAACUACAGAAAUGUAGUUGACGAGGAGGAGGUUUAUCGAAUUUUGGGCGGAUUCCUCCAAA [C58G G66U]
glucosamine-6-phosphate [1]
  kcat: 1.05e-05 ± 2.2e-06 s⁻¹
glucosamine-6-phosphate [3]
  self-cleavage kobs at 160 uM GlcN6P: < 1e-05 s⁻¹

## AUAAAAGCGCCAGAACUACAGAAAUGUAGUUGACGAGGAGCAGGUUUAUCGAACUUUCGGCGGAUGCCUCCAAA [G41C U54C]
glucosamine-6-phosphate [1]
  kcat: 0.000229 ± 4e-05 s⁻¹
glucosamine-6-phosphate [5]
  self-cleavage kobs at 640 uM GlcN6P: 0.000132 ± 2.8e-05 s⁻¹
glucosamine-6-phosphate [6]
  self-cleavage kobs at 2500 uM GlcN6P: 0.000162 ± 3.3e-05 s⁻¹
glucosamine-6-phosphate [7]
  self-cleavage kobs at 10000 uM GlcN6P: 0.000204 ± 2.4e-05 s⁻¹
